Assay results published in the supplement of paper PMC9170038.

Test system: MS2 coat protein
Assay: apparent KD of MS2 coat protein; designed switch direction (-1 OFF switch, 1 ON switch): -1; higher = weaker reporter binding
Outline: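 An oligonucleotide input, 200 uM small-molecule ligand, or no input was present during titration of SNAP-549-labelled MS2 coat protein, which was doubled from 0.7 or 1.5 nM to 3 µM. Designed RNA switches had been transcribed on Illumina chips by stalled E. coli RNA polymerase. Apparent KD per design is the median over clusters of curves fitted to normalised cluster fluorescence.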

[1] = Eterna round: R95, input ligand: FMN 200 uM
[2] = Eterna round: R95, input ligand: microRNA oligo, concentration not stated
[3] = Eterna round: R95, input ligand: none
[4] = input ligand: microRNA oligo, concentration not stated

| Sequence | apparent KD of MS2 coat protein [1] [nM] | apparent KD of MS2 coat protein [2] [nM] | apparent KD of MS2 coat protein [3] [nM] | apparent KD of MS2 coat protein (input ligand: FMN 200 uM) [nM] | apparent KD of MS2 coat protein (input ligand: none) [nM] | apparent KD of MS2 coat protein [4] [nM] |
| --- | --- | --- | --- | --- | --- | --- |
| UGUACGAUGCGUGCUGACAUGCGUCGUGCAGCAGGUUUUACAUGAGGAUCACCCAUGUCCUCACUUGCUCGUCUUGU (puzzle: Sensor v3, turn-off variant 2) | 257 | 187 | 279 |  |  |  |
| GGUGGACAUGAGGAUCACCCAUGUGAGGAUAUCGGCCGGUUCGUGGUGGCUGGCCUCUCGAGAAGGCGCAUAGU [Exclusion 1 V73] (puzzle: Exclusion 1) |  | 44.1 |  |  |  |  |
| UUUAGUUCAGGAUAUGUAGAUUUUAACAUGAGGAUCACCCAUGUGGAUCCUGAAUUAACUACAGAAGGGAACAUUU [Mod of Brourd 3 - Jieux - Exclusion 5] (Eterna round: R97, puzzle: Exclusion 5) |  |  |  | 294 | 43 |  |
| GUAUAUAGUGUGAGGAUAUGCUGGUCCUUGGAUCAGCAGAAGGCACAUGAGGAUCACCCAUGUAGUUAAAUAUA [Mat - Exclusion 4 - JL Mod - D20] (puzzle: Brourd's mod of Exclusion 4) |  | 30.1 |  |  |  |  |
| UAAAUUGCAAGCAGAUCCUACAUGAGGAUCACCCAUGUGCUCUGAAAUAACGCAGAAUUACUGCGAGCUCGUCUUAU [Winner reversed engineered 26] (Eterna round: R97, puzzle: Sensor, turn-off variant 1) |  |  |  | 80.9 | 94.3 |  |
| UAUAUAUAGUAAGGAUAUGUAAUUAUUUUAUCAACAGAAGGUACUGACAUGAGGAUCACCCAUGUUUUAGUGUGGGCAUGUAGA [JMF's solution 49] (Eterna round: R96, puzzle: Exclusion NG 1) |  |  |  |  |  | 61.7 |
| UUGGAUGUUGAGGAUAUGCUGGUGUUUAUUAUAGCAGAAGGCGAUACAUGAGGAUCACCCAUGUUCAUGGCUUU [JR_E6_Sub100] (puzzle: Exclusion 6) |  | 12.4 |  |  |  |  |
| GGUUGGCGAGGAUAUACAUGAGGAUCACCCAUGUGAGAGAAAAAAGUGAGGAAGACAAGUAGAAGGCGCUGACG [salish99_ex3_r3_035] (puzzle: Exclusion 3) | 8540 | 237 | 125 |  |  |  |
| CAUGAUUGACGAGGAUAUUGUUCUACAUCACGACGAGAAGGCGUCUGUCACAUGAGGAUCACCCAUGUGAGUCUGGUGAAUGAG [Ex NG1 #82] (Eterna round: R96, puzzle: Exclusion NG 1) |  |  |  | 31 | 21.8 | 17.2 |
| AGCUAAAUAGGAUAUGCCCGGGAUAACAUGAGGAUCACCCAUGUGACCGAUUCAUGUCCUGCAGAAGGGUUUGGGA [Mod of ViennaUCT 6 - Jieux - Exclusion 5] (Eterna round: R97, puzzle: Exclusion 5) |  |  |  | 14.3 | 13.5 |  |
| UGUUGUUACGCAGGAUAUCCACCAACAGGUGGAAGGAUAUGUACGCAGAAGGUUCGCCAACAGGCGGAGAAGGGCGGGUUAACA [pwkr exNG2 2xF7 2xFMN.26] (Eterna round: R96, puzzle: Exclusion NG 2) |  |  |  | 178 | 3690 | 63.4 |
| UAUAUGUCAGGAUAUUAGUAGUAAAUGAAUAAAAUUAUUACUGAGAAGGGACAUGAGGAUCACCCAUGUGCUUC [Mat - Exclusion 4 - Eli Mod - D25] (Eterna round: R97, puzzle: Exclusion 4) |  |  |  | 224 | 27.9 |  |
| AAGAAGGCCGUAGGAUAUACAGCAAGAACGCGAGUAGAAGGACGAUACAUGAGGAUCACCCAUGUACGUGGGUAGUGCUCGUGC [Soatceri] (Eterna round: R96, puzzle: Exclusion NG 1) |  |  |  | 26 | 21.8 | 10.9 |
| AAAACAAACGAAGGAUAUGCAACCCGGCGGUACGCAGAAGGUCGAAAGAUUUUCAUUCUACAUGAGGAUCACCCAUGUACGGGC [Leange] (Eterna round: R96, puzzle: Exclusion NG 1) |  |  |  | 48.5 | 52.3 | 39.7 |
| ACAUGUGUUGUAGGAUAUAGGAUACAUGAGGAUCACCCAUGUGGAUUCAUGUCAAAGGAAGCGUCCUAGAAGGACGGCAACAUG [Ex NG2 #24] (Eterna round: R96, puzzle: Exclusion NG 2) |  |  |  | 46.6 | 49.6 | 38.3 |
| UGAUUGUUUACCAGAUUAUACAUGAGGAUCACCCAUGUAGAUCCUACGUGCACGUUAUACAGCUCGUCUUAUUCCCA [Sensor-V1 #74] (Eterna round: R97, puzzle: Sensor, turn-off variant 1) |  |  |  | 35.4 | 36.2 |  |
| CAGUACUGAGGAUAUACAUGAGGAUCACCCAUGUGUCCUAGCUAGGAUACUAGCAUUAGUAGAAGGCAGUACUG [Fiskers Ex 3 828 mod 7] (puzzle: Exclusion 3) |  | 19.8 |  |  |  |  |
